From ChEMBL document CHEMBL1152764, “Penicilliols A and B, novel inhibitors specific to mammalian Y-family DNA polymerases” (Bioorg Med Chem, 2009)

Legend:
[1] = substrate: C/C=C/C(=O)C1=C(OC)OC(C)(/C=C/C=C/C(C)O)C1=O; assay: Activity of mouse DNA polymerase iota using poly(dA/oligo(dT) substrate at 5 uM by Lineweaver-Burke plot
[2] = substrate: C/C=C/C(=O)C1=C(OC)OC(C)(/C=C/C=C/C(C)O)C1=O; assay: Activity of mouse DNA polymerase iota using poly(dA/oligo(dT) substrate at 10 uM by Lineweaver-Burke plot
[3] = substrate: C/C=C/C(=O)C1=C(OC)OC(C)(/C=C/C=C/C(C)O)C1=O; assay: Activity of mouse DNA polymerase iota using poly(dA/oligo(dT) substrate at 15 uM by Lineweaver-Burke plot
[4] = substrate: C/C=C/C(=O)C1=C(OC)OC(C)(/C=C/C=C/C(C)O)C1=O; assay: Activity of mouse DNA polymerase iota using dTTP substrate at 5 uM by Lineweaver-Burke plot
[5] = substrate: C/C=C/C(=O)C1=C(OC)OC(C)(/C=C/C=C/C(C)O)C1=O; assay: Activity of mouse DNA polymerase iota using dTTP substrate at 10 uM by Lineweaver-Burke plot
[6] = substrate: C/C=C/C(=O)C1=C(OC)OC(C)(/C=C/C=C/C(C)O)C1=O; assay: Activity of mouse DNA polymerase iota using dTTP substrate at 15 uM by Lineweaver-Burke plot

B1: DNA polymerase iota (Mus musculus), Q6R3M4 (protein)
chain: MEPLHAGAAGSSRAVCSQGPPTQISSSRVIVHVDLDCFYAQVEMISNPELKDRPLGVQQKYLVVTCNYEARKLGVRKLMNVRDAKEKCPQLVLVNGEDLSRYREMSYKVTELLEEFSPAVERLGFDENFVDLTEMVEKRLQQLPSEEVPSVTVFGHVYNNQSVNLHNIMHRRLVVGSQIAAEMREAMYNQLGLTGCAGVAPNKLLAKLVSGVFKPNQQTVLLPESCQHLIHSLNHIKEIPGIGYKTAKRLEVLGINSVHDLQTFPIKTLEKELGIAIAQRIQQLSFGEDKSPVTPSGPPQSFSEEDTFKKCSSEVEAKAKIEELLSSLLTRVCQDGRKPHTVRLVIRRYSDKHCNRESRQCPIPSHVIQKLGTGNHDSMPPLIDILMKLFRNMVNVKMPFHLTLMSVCFCNLKALSSAKKGPMDCYLTSLSTPAYTDKRAFKVKDTHTEDSHKEKEANWDCLPSRRIESTGTGESPLDATCFPKEKDTSDLPLQALPEGVDQEVFKQLPADIQEEILYGKSRENLKGKGSLSCPLHASRGVLSFFSTKQMQASRLSPRDTALPSKRVSAASPCEPGTSGLSPGSTSHPSCGKDCSYYIDSQLKDEQTSQGPTESQGCQFSSTNPAVSGFHSFPNLQTEQLFSTHRTVDSHKQTATASHQGLESHQGLESRELDSAEEKLPFPPDIDPQVFYELPEEVQKELMAEWERAGAARPSAHR
Work on B1 yielded a Vmax [1] of 31.1 pmol/h, a Vmax [2] of 20 pmol/h and a Vmax [3] of 14.8 pmol/h. The Vmax [4] was 35.7 pmol/h, the Vmax [5] was 27.6 pmol/h and the Vmax [6] was 22.5 pmol/h.
